From article PMC9204233, “Characterization of Catechol-1,2-Dioxygenase (Acdo1p) From Blastobotrys raffinosifermentans and Investigation of Its Role in the Catabolism of Aromatic Compounds” (Frontiers in Microbiology, 2022) come the findings set out here.

The test system of one series is Oc1ccc(O)c(O)c1. Nature of the series: purified protein. Particulars: pH 7.5, 20 °C.
In the next series the test system is Oc1ccccc1O. Nature of the series: purified protein. Conditions: 50 mM Tris-HCl pH 7.5, ~20 °C.
Series [1] concerns the target Blastobotrys raffinosifermentans catechol-1,2-dioxygenase with C-terminal 6His-tag (Acdo1-6hp) (Blastobotrys raffinosifermentans LS3). Nature of the series: SEC; gel filtration on Superdex 200; 50 mM Tris (pH 8), 0.15 M NaCl; flow 1 mL/min; mass against a calibration curve (blue dextran, ferritin, catalase, bovine albumin, RNAse A, vitamin B12); 'indicative' molecular mass. On the technique in general: SEC sorts molecules by how far they enter the pores of the column.

Series [2] addresses T1, Acdo1-6hp (Acdo1p, catechol-1,2-dioxygenase) (Blastobotrys raffinosifermentans, UniProt A0A060T9I8).
T1 construct: expressed in B. raffinosifermentans G1212, HisTrap purified
Nature of the series: spectrophotometric, 2-hydroxymuconic acid formation at […] nm. Format: biochemical. Particulars: 50 mM Tris-HCl pH 7.5, ~20 °C.

The term Km denotes the concentration of substrate that gives half-maximal velocity. In general, kcat refers to the maximal rate divided by the concentration of active sites. The term kcat/Km denotes the second-order rate constant that governs catalysis at low substrate concentration. Usually stoichiometry N stands for the number of molecules, sites or subunits per partner or assembly.

T1 sequence (A0A060T9I8 1-334 limits assumed): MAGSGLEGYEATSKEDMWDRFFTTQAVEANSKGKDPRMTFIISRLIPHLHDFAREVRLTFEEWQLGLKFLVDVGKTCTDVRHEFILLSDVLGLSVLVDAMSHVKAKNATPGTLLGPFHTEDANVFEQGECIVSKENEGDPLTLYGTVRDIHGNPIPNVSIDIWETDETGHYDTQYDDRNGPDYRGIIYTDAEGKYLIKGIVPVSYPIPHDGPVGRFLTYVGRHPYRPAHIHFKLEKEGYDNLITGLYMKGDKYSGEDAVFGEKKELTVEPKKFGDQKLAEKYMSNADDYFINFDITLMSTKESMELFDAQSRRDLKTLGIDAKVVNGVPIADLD

For “Acdo1-6hp (Acdo1p, catechol-1,2-dioxygenase) (Blastobotrys raffinosifermentans)”, in the series on Oc1ccc(O)c(O)c1, the Km stood at 8 ± 2 µM, the turnover number (kcat) was 17 ± 3.5 s⁻¹ and the kcat/Km is 2.13e+06 ± 971000 M⁻¹ s⁻¹. For the same compound, in the series with Oc1ccccc1O, the Michaelis-Menten constant (Km) came out at 4 ± 1 µM, the catalytic constant (kcat) amounted to 15.6 ± 0.4 s⁻¹ and the catalytic efficiency (kcat/Km) turned out to be 3.95e+06 ± 930000 M⁻¹ s⁻¹.
Regarding “Blastobotrys raffinosifermentans catechol-1,2-dioxygenase with C-terminal 6His-tag (Acdo1-6hp) (enzyme)”, the stoichiometry N in series [1] came to 2.
For the compound `Oc1cccc(O)c1O` [pyrogallol], the Michaelis-Menten constant (Km) in series [2] turned out to be 100 ± 20 µM.
